From the supplement of paper PMC10567573

B1: PPFIA4 (parent)
chain: PGVHRRYSALREESAKDWETSPLP
B2: PCDHGA10 (parent)
chain: FHELQMQVTASDSGDPPLSSNVSL

Variants of: B1
Experiment: protein stability index of a GFP-peptide fusion (GPS, HEK-293T) (PSI 1-6); higher = more stable
Details: c terminus: a fixed tail appended
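Also: lentivirally expressed fusions sorted by FACS into six bins by GFP to DsRed ratio, PSI derived from sequencing read proportions per bin multiplied by bin number.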

Protein stability index, by site and new letter:
P1: H 4.36 | Y 4.17 | M 3.51 | E 3.49 | C 2.65 | N 3.88 | G 4.03 | V 3.74 | D 3.93 | Q 4.18 | T 4.16 | I 4.16 | A 3.5 | F 3.63 | L 3.11 | K 4.41
S8: T 2.88 | K 4.64 | Q 4.86 | F 3.08 | Y 3.79 | I 3.62 | L 3.54 | G 4.23 | E 4.35 | D 4.97 | W 2.08 | C 3.16 | P 4.28 | H 3.76 | V 3.67 | N 4.34 | R 4.07
G2: K 3.98 | I 4.51 | A 3.85 | N 4.5 | Y 4.08 | Q 4.43 | S 4.28 | H 3.18 | C 3.42 | T 4.67 | W 4.36 | V 4.16 | R 4.11 | M 3.62 | D 4.4
R5: H 4.27 | M 4.71 | L 3.99 | G 3.96 | C 2.68 | K 4.34 | D 5.06 | S 4.58 | A 4.86 | T 3.91 | P 4.54 | Y 3.66 | W 3.81 | F 3.99 | Q 4.6 | V 3.67
R11: G 3.41 | P 4.19 | N 4.58 | E 5.29 | K 4.36 | M 4.45 | L 3.86 | Q 4.65 | Y 3.79 | C 4.37 | T 4.88 | W 3.16 | H 3.67 | V 4.21 | D 4.82 | A 4.31 | I 3.92 | F 3.59 | S 4.55
H4: W 3.15 | T 4.36 | E 4.53 | L 3.77 | N 4.52 | D 4.37 | C 2.79 | P 4.33 | M 4.49 | V 3.8 | Y 4.81 | R 3.42 | I 4.14 | A 4.25
A9: Y 3.4 | M 3.86 | E 3.92 | S 4.22 | K 4.03 | N 4.4 | T 4.19 | P 2.93 | H 3.92 | Q 3.5 | G 3.87 | C 3.67 | W 3.58 | F 2.91 | V 4.12 | L 4.27
L10: D 4.97 | T 4.97 | P 4.97 | I 4.15 | N 4.79 | C 2.28 | V 4.26 | K 4.69 | M 4.31 | F 4.29 | S 4.53 | H 4.48 | Y 4.02 | Q 3.63 | A 3.69 | W 4.31
K16: L 4.05 | N 4.66 | C 4.02 | A 3.7 | Q 3.67 | M 4.24 | E 4.51 | H 4.17 | I 3.96 | D 4.45 | P 3.89 | F 3.17
E13: I 3.45 | S 3.96 | N 3.42 | Q 4.04 | D 3.74 | Y 3.14 | K 3.69 | M 2.96 | F 3.8 | W 2.64 | V 4.06 | A 3.75 | P 3.11 | G 3.93 | T 3.51 | H 2.63 | L 3.34 | C 2.38
A15: E 4.52 | H 4.39 | N 3.92 | M 2.77 | C 3.63 | K 4.59 | S 3.76 | T 4.63 | P 4.12 | V 3.89 | R 4 | F 3.52 | G 4.07 | Y 3.32 | W 3.86 | L 4.12 | D 4.92 | Q 3.63
V3: H 4.44 | Y 3.55 | L 3.66 | R 4.33 | E 4.33 | C 4.08 | M 5.03 | S 3.89 | T 4.7 | Q 4.42 | D 4.89 | N 4.45 | F 4.02 | P 4.6 | G 4.84
R6: D 4.7 | W 2.71 | I 3.39 | H 3.65 | L 3.04 | G 3.98 | C 3.72 | T 4.35 | E 4.88 | Y 3.62 | K 4.65 | A 4.49 | N 4.48 | Q 4.31 | M 3.82 | F 3.74 | S 4 | P 3.91
E12: G 4.62 | N 4.23 | A 3.94 | W 3.11 | K 3.96 | S 3.68 | T 4.02 | I 3.21 | M 3.56 | L 3.45 | H 3.85 | Q 3.68 | D 4.05 | P 3.88 | C 3.57 | Y 3.48 | R 3.45 | F 3.02
Y7: E 5.25 | L 4.18 | T 4.27 | P 4.24 | F 4.13 | Q 4.9 | N 4.5 | W 4.2 | G 4.62 | D 4.38 | I 4.34 | R 4.6 | H 4.39 | C 3.87 | S 4.58 | M 4.56 | K 4.58 | V 4.49 | A 4.8
S14: D 4.92 | I 4.05 | H 4.19 | W 2.81 | M 3.41 | T 3.56 | P 3.87 | E 4.69 | R 3.07 | Y 3.46 | V 3.92 | Q 3.63 | L 3.93 | K 5 | F 3.63 | G 4.12 | N 4.69

Variants of: B2
Experiment: as above
Details: c terminus: a fixed tail appended

Protein stability index of substitutions, site by site:
N21: W 1.55 | T 2.09 | I 1.79 | Q 2.05 | R 1.91 | P 2.5 | M 1.75 | H 2.06 | Y 1.64 | V 1.58 | S 2.1 | L 2.34 | K 2.08
V22: N 2.77 | P 2.34 | Y 2.56 | G 2.72 | L 2.71 | R 2.69 | F 1.8 | C 2.38 | E 3.24 | I 1.85 | Q 2.43 | W 2.05 | D 3.4 | M 2.34 | A 2.52 | H 3.13 | T 2.83 | K 2.84 | S 3.11
L24: H 2.84 | F 2.06 | Q 3.26 | W 2.64 | R 2.75 | M 2.68 | D 3.17 | E 3.07 | N 2.96 | I 1.83 | S 3.29 | V 2.72 | G 2.52 | P 2.9 | K 2.79 | T 3.22 | A 3.29 | C 2.84 | Y 2.31
S23: P 2.82 | C 1.72 | T 2.18 | A 2.15 | Y 1.75 | I 1.89 | M 2.15 | L 2.05 | Q 2.1 | K 2.84 | R 2.51 | N 2.46 | D 3.16 | G 2.01 | H 2.14 | V 2.05 | F 2.39 | W 2.08 | E 3.33
